From patent publication US5831007
pKd: −log10 of the molar value. Several values for one entry are separate records, joined by “and”; a condition that tells them apart may be missing. Equal entries are not always repeated.

Legend:
[1] = molecular target: Soluble complex of 125I-IL-12 crosslinked to human IL-12R (human) (UniProt P29460); assay: immunoprecipitation of the solubilized 125I-IL-12/IL-12R complex by the immobilized antibody; control
[2] = molecular target: Natural human IL-12 receptor on IL-12R positive human cells (PHA-activated PBMC, K6, Kit-225, YT cells) (human); assay: equilibrium binding of 125I-IL-12 to PHA-activated PBMCs, Kit-225 and K6 cells, Scatchard, second of 3 sites
[3] = molecular target: Natural human IL-12 receptor on IL-12R positive human cells (PHA-activated PBMC, K6, Kit-225, YT cells) (human); assay: steady state 125I-IL-12 binding to K6 cells, Scatchard, first of 3 sites
[4] = molecular target: Detergent solubilized IL-12R from extracts of PHA-activated PBMC, Kit-225 or K6 cells (human); assay: steady state binding of 125I-IL-12 to proteins immunoprecipitated by immobilized 2-4E6 from solubilized cell extracts, Scatchard (FIG. 14, K6 cells)
[5] = molecular target: Natural human IL-12 receptor on IL-12R positive human cells (PHA-activated PBMC, K6, Kit-225, YT cells) (human); assay: equilibrium binding of 125I-IL-12 to PHA-activated PBMCs, Kit-225 and K6 cells, Scatchard, first of 3 sites
[6] = molecular target: Natural human IL-12 receptor on IL-12R positive human cells (PHA-activated PBMC, K6, Kit-225, YT cells) (human)
[7] = molecular target: Natural human IL-12 receptor on IL-12R positive human cells (PHA-activated PBMC, K6, Kit-225, YT cells) (human); assay: steady state 125I-IL-12 binding to K6 cells, Scatchard, third of 3 sites
[8] = molecular target: Natural human IL-12 receptor on IL-12R positive human cells (PHA-activated PBMC, K6, Kit-225, YT cells) (human); assay: steady state 125I-IL-12 binding to YT cells, Scatchard, second of 2 sites
[9] = molecular target: Natural human IL-12 receptor on IL-12R positive human cells (PHA-activated PBMC, K6, Kit-225, YT cells) (human); assay: steady state 125I-IL-12 binding to K6 cells, Scatchard, second of 3 sites
[10] = molecular target: Natural human IL-12 receptor on IL-12R positive human cells (PHA-activated PBMC, K6, Kit-225, YT cells) (human); assay: equilibrium binding of 125I-IL-12 to PHA-activated PBMCs, Kit-225 and K6 cells, Scatchard, third of 3 sites
[11] = molecular target: Natural human IL-12 receptor on IL-12R positive human cells (PHA-activated PBMC, K6, Kit-225, YT cells) (human); assay: steady state 125I-IL-12 binding to PHA-PBMC (5-7 days), Scatchard, third of 3 sites
[12] = molecular target: Natural human IL-12 receptor on IL-12R positive human cells (PHA-activated PBMC, K6, Kit-225, YT cells) (human); assay: steady state 125I-IL-12 binding to Kit-225 cells, Scatchard, first of 3 sites
[13] = molecular target: Natural human IL-12 receptor on IL-12R positive human cells (PHA-activated PBMC, K6, Kit-225, YT cells) (human); assay: steady state 125I-IL-12 binding to Kit-225 cells, Scatchard, third of 3 sites
[14] = molecular target: Natural human IL-12 receptor on IL-12R positive human cells (PHA-activated PBMC, K6, Kit-225, YT cells) (human); assay: steady state 125I-IL-12 binding to Kit-225 cells, Scatchard, second of 3 sites
[15] = molecular target: Natural human IL-12 receptor on IL-12R positive human cells (PHA-activated PBMC, K6, Kit-225, YT cells) (human); assay: steady state 125I-IL-12 binding to YT cells, Scatchard, first of 2 sites
[16] = molecular target: Natural human IL-12 receptor on IL-12R positive human cells (PHA-activated PBMC, K6, Kit-225, YT cells) (human); assay: steady state 125I-IL-12 binding to PHA-PBMC (5-7 days), Scatchard, second of 3 sites
[17] = molecular target: Natural human IL-12 receptor on IL-12R positive human cells (PHA-activated PBMC, K6, Kit-225, YT cells) (human); assay: steady state 125I-IL-12 binding to PHA-PBMC (5-7 days), Scatchard, first of 3 sites

Chain of Recombinant human IL-12 (Interleukin-12) (P29460 23-328): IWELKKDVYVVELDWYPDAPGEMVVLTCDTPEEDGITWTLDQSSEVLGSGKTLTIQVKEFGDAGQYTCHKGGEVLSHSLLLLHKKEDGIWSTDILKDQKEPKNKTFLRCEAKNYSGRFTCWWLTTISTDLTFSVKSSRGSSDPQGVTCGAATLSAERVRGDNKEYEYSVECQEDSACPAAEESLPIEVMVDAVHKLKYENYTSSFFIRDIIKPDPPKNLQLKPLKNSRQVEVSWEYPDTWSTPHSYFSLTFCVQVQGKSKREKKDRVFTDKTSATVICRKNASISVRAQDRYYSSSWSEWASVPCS
Chain of Recombinant human IL-12 (Interleukin-12) (chain): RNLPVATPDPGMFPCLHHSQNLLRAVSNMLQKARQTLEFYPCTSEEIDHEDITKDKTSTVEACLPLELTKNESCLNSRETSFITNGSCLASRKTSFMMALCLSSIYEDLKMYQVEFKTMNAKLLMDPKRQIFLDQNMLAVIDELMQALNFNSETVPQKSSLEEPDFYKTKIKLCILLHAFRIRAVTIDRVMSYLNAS

| Substance | I.P. assay (cpm bound) [1] [cpm] | pKd [2] | pKd [3] | pKd [4] | pKd [5] | 3H-TdR incorporation of PHA-activated PBMC [6] [cpm] | pKd [7] | pKd [8] | pKd [9] | pKd [10] | pKd [11] | pKd [12] | pKd [13] | pKd [14] | pKd [15] | pKd [16] | pKd [17] |
| --- | --- | --- | --- | --- | --- | --- | --- | --- | --- | --- | --- | --- | --- | --- | --- | --- | --- |
| Control mAb (Table 1) (antibody) | 402 |  |  |  |  |  |  |  |  |  |  |  |  |  |  |  |  |
| Recombinant human IL-12 (Interleukin-12) (from UniProt P29460) (ligand) |  | 10.30 and 9.70 | 10.80 | 9.73 | 11.30 and 10.70 | 38800 | 8.62 | 9.96 | 10.24 | 8.70 and 8.22 | 8.74 | 10.64 | 8.63 | 9.68 | 11.22 | 10.08 | 10.74 |
